In publication PMC8834691, “Deletion of Specific Conserved Motifs from the N-Terminal Domain of αB-Crystallin Results in the Activation of Chaperone Functions” (International Journal of Molecular Sciences, 2022):

Molecular target: the molecule itself
Assay: SEC-MALS; 0.1 mg protein in 0.25 mL phosphate buffer, incubated at 37 °C for 1 h; TSK G5000PWXL column, 0.75 mL/min; subunits per oligomer = oligomeric mass divided by subunit mass

B1: wild-type αB-crystallin (natural protein, human, UniProt P02511 1-175, looked up)
chain: MDIAIHHPWIRRPFFPFHSPSRLFDQFFGEHLLESDLFPTSTSLSPFYLRPPSFLRAPSWFDTGLSEMRLEKDRFSVNLDVKHFSPEELKVKVLGDVIEVHGKHEERQDEHGFISREFHRKYRIPADVDPLTITSSLSSDGVLTVNGPRKQVSGPERTIPITREEKPAVTAAPKK
notes: αB-crystallin, human, wild type, recombinant; called full-length αB-WT; Polydisperse homo-oligomer (average molar mass 558 kDa by MALS); also called αB-WT; WT-αB; source: E. coli BL21(DE3) pLysS, purified (45% ammonium sulfate precipitation, Superdex G200 gel filtration)
- binding result: binds

B2: αB-crystallin with residues 54–61 deleted (natural protein, human, UniProt P02511 1-175, looked up)
chain: MDIAIHHPWIRRPFFPFHSPSRLFDQFFGEHLLESDLFPTSTSLSPFYLRPPSDTGLSEMRLEKDRFSVNLDVKHFSPEELKVKVLGDVIEVHGKHEERQDEHGFISREFHRKYRIPADVDPLTITSSLSSDGVLTVNGPRKQVSGPERTIPITREEKPAVTAAPKK
notes: Polydisperse homo-oligomer (average molar mass 262 kDa by MALS); also called αBΔ54–61; αB∆54–61; source: E. coli BL21(DE3) pLysS, purified (45% ammonium sulfate precipitation, Superdex G200 gel filtration)
- binding result: binds

B3: αB-crystallin with residues 21–28 and 54–61 deleted (natural protein, human, UniProt P02511 1-175, looked up)
chain: MDIAIHHPWIRRPFFPFHSPGEHLLESDLFPTSTSLSPFYLRPPSDTGLSEMRLEKDRFSVNLDVKHFSPEELKVKVLGDVIEVHGKHEERQDEHGFISREFHRKYRIPADVDPLTITSSLSSDGVLTVNGPRKQVSGPERTIPITREEKPAVTAAPKK
notes: Gene from GenScript in pET23a(+), without the C-terminal His-tag; the in-frame T7 tag was removed by PCR; Small homo-oligomer, average molar mass 85 kDa, on average close to four subunits; also called αBΔ21–28, Δ54–61; αB∆21–28, ∆54–61; source: E. coli BL21(DE3) pLysS, purified (45% ammonium sulfate precipitation, Superdex G200 gel filtration)
- stoichiometry N: ~4 subunits per oligomer
